This passage reports Kd results from paper PMC11965310.

This test has as its target Recombinant Human LRP1 cluster III protein, Fc Tag (human) (UniProt Q07954). Nature of the test: SPR; LRP1 cluster III-Fc captured on a Protein G chip (1800 RU); tau1N4R as analyte 0.012-1 μM, single-cycle kinetics; HBS-N with 0.005% P20 and 1 mM CaCl2; 1:1 Langmuir model.

Chain of Recombinant Human LRP1 cluster III protein, Fc Tag (human) (Q07954 2522-2940): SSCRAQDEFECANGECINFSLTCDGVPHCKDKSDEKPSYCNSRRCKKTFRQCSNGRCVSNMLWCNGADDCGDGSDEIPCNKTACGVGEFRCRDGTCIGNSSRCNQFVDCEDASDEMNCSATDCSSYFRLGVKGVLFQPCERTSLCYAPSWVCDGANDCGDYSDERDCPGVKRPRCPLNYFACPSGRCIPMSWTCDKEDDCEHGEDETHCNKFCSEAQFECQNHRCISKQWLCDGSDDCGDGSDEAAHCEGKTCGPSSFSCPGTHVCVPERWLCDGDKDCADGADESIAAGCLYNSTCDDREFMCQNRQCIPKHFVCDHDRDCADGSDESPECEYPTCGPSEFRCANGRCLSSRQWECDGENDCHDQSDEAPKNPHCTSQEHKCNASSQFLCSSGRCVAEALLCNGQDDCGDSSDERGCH

For “tau1N4R (from UniProt P10636-6 1-383) (natural protein)”, the Kd was found to be 91 nM.
